From US20250376535A1 (BEIJING STARMAB BIOMED TECHNOLOGY, published 2025)

Assays:
EGFR Fc [1] = biological target: T1, EGFR Fc (human, UniProt P00533 25-645); test: ELISA, EGFR Fc coated
T1 construct: also called EGFR-hFc; recombinant human EGFR-Fc
Method: (§1) After four rounds of washing with PBST, the plate was incubated with detecting antibody anti-his-HRP (1:4000 dilution) 100 μl per well for one hour with shaking at 60 rpm. The plate was developed with 100 μL of TMB per well in the dark and then stopped by 50 μL of stop solution per well. […] Data was analyzed using GraphPad Prisma 9.1.

[2] = biological target: T2, EGFR (recombinant human, BLI antigen) (human, UniProt P00533 25-645); test: BLI (Octet) as in Example 1
T2 construct: also called rh-EGFR; human EGFR

EGFR Fc [3] = biological target: T1, EGFR Fc; test: ELISA, EGFR Fc coated, VHH at 2 nM
Method: as §1

EGFR Fc [4] = biological target: T1, EGFR Fc; test: ELISA, EGFR Fc coated, VHH at 10 nM
Method: as §1

EGFR Fc [5] = biological target: T1, EGFR Fc; test: ELISA, EGFR Fc coated, VHH at 50 nM
Method: as §1

EGFR Fc [6] = biological target: T1, EGFR Fc; test: ELISA, EGFR Fc coated, VHH at 0.4 nM
Method: as §1

EGFR Fc [7] = biological target: T1, EGFR Fc; test: ELISA, EGFR Fc coated, VHH at 500 nM
Method: as §1

EGFR Fc [8] = biological target: T1, EGFR Fc; test: ELISA, EGFR Fc coated, VHH at 0.08 nM
Method: as §1

EGFR Fc [9] = biological target: T1, EGFR Fc; test: ELISA, EGFR Fc coated, VHH at 0.016 nM
Method: as §1

EGFR Fc [10] = biological target: T1, EGFR Fc; test: ELISA, EGFR Fc coated, VHH at 0.0032 nM
Method: as §1

EGFR Fc [11] = biological target: T1, EGFR Fc; test: blocking ELISA, EGFR-hFc + VHH at 0 nM on coated EGF-mFc
Method: (§2) After incubation at 4° C. overnight, the plate was washed four times of PBST and blocked with 200 μl per well of 2% BSA for one hour at room temperature. […] The plate was washed twice with PBST, and the pre-mixed samples were added to the 96-well plate shaking at 60 rpm for one hour at room temperature. After four washes of PBST, the plate was incubated with detecting antibody anti-his-HRP (1:4000 dilution) 100 μl per well for one hour with shaking at 60 rpm. The plate was washed with four times of PBST and added 100 μl per well of substrate TMB followed by 50 μl of stop solution.

EGFR Fc [12] = biological target: T1, EGFR Fc; test: blocking ELISA, EGFR-hFc + VHH at 8 nM on coated EGF-mFc
Method: as §2

EGFR Fc [13] = biological target: T1, EGFR Fc; test: blocking ELISA, EGFR-hFc + VHH at 40 nM on coated EGF-mFc
Method: as §2

EGFR Fc [14] = biological target: T1, EGFR Fc; test: blocking ELISA, EGFR-hFc + VHH at 1.6 nM on coated EGF-mFc
Method: as §2

EGFR Fc [15] = biological target: T1, EGFR Fc; test: blocking ELISA, EGFR-hFc + VHH at 200 nM on coated EGF-mFc
Method: as §2

EGFR Fc [16] = biological target: T1, EGFR Fc; test: blocking ELISA, EGFR-hFc + VHH at 0.32 nM on coated EGF-mFc
Method: as §2

EGFR Fc [17] = biological target: T1, EGFR Fc; test: blocking ELISA, EGFR-hFc + VHH at 1000 nM on coated EGF-mFc
Method: as §2

EGFR Fc [18] = biological target: T1, EGFR Fc; test: blocking ELISA, EGFR-hFc + VHH at 0.064 nM on coated EGF-mFc
Method: as §2

human serum albumin = biological target: T3, human serum albumin (human, UniProt P02768 25-609); test: BLI (Gator), His-tagged VHH on anti-His sensor, HSA 100 nM in solution
T3 construct: also called HSA
Method: (§3) Kinetic binding analysis of MSA VHHs were performed with Gator Prime system equipped with analyze software. […] The experiments were done at 30° C. Prior to analysis, sensors were socked in Q buffer for 600 sec with shaking at 1000 rpm, and then 2 μM of HIS tagged MSA VHHs were loaded to Anti-His sensors with shaking at 400 rpm for 120 sec. Loaded sensors were transferred into Q buffer for 60 sec. Association of HSA or MSA at 100 nM was initiated and monitored for 120-180 sec with shaking at 1000 rpm, and finally dissociation in Q buffer for 120-180 sec with 1000 rpm shaking. Software V2.0 (Gator Bio) was used for data analysis. The on-rate (Kₒₙ) and off-rate (Kd) were determined by fitting of the association and dissociation phases of each sample. The mathematical model used assumes a 1:1 stoichiometry, fitting only one analyte in solution binding to one binding site on the surface. The equilibrium dissociation constant (KD), a measure for affinity, was then calculated as the ratio of Kd and Kₒₙ.

murine serum albumin = biological target: T4, murine serum albumin (murine, UniProt P07724 25-608); test: BLI (Gator), His-tagged VHH on anti-His sensor, murine serum albumin 100 nM in solution
T4 construct: As antigen 'MSA' means murine serum albumin; the VHHs also carry the label MSA; also called MSA
Method: as §3

4-1BB Fc [19] = biological target: T5, 4-1BB Fc (human, UniProt Q07011 24-183); test: ELISA, 4-1BB Fc coated, VHH at 5 nM
T5 construct: also called rh-41BB; 41BB-hFc
T5 sequence (Q07011 24-183): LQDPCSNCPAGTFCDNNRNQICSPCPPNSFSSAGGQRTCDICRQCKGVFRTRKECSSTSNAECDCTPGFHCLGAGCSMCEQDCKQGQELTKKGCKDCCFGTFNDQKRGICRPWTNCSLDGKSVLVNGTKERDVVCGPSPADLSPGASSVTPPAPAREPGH
Method: as §1

4-1BB Fc [20] = biological target: T5, 4-1BB Fc; test: ELISA, 4-1BB Fc coated, VHH at 50 nM
Method: as §1

4-1BB Fc [21] = biological target: T5, 4-1BB Fc; test: ELISA, 4-1BB Fc coated, VHH at 0.5 nM
Method: as §1

4-1BB Fc [22] = biological target: T5, 4-1BB Fc; test: ELISA, 4-1BB Fc coated, VHH at 500 nM
Method: as §1

4-1BB Fc [23] = biological target: T5, 4-1BB Fc; test: ELISA, 4-1BB Fc coated, VHH at 0.05 nM
Method: as §1

4-1BB Fc [24] = biological target: T5, 4-1BB Fc; test: ELISA, 4-1BB Fc coated, VHH at 0.005 nM
Method: as §1

4-1BB Fc [25] = biological target: T5, 4-1BB Fc; test: ELISA, 4-1BB Fc coated, VHH at 0.0005 nM
Method: as §1

4-1BB Fc [26] = biological target: T5, 4-1BB Fc; test: ELISA, 4-1BB Fc coated, VHH at 0.00005 nM
Method: as §1

Human 41BB antigen (BLI) = biological target: T6, Human 41BB antigen (BLI) (human, UniProt Q07011 24-183); test: BLI, VHH-His on anti-His tips, human 41BB in solution;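 further: association tracked for 200 s, after which dissociation was followed in 1×PBS free of 41BB protein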
T6 construct: also called 41BB protein
T6 sequence (Q07011 24-183 limits assumed): as the sequence (Q07011 24-183) above
Method: Tips were loaded using 20 μg/ml of anti-41BB VHH. Loading proceeded for 300 sec resulting in capture levels of between 1.8 and 2 nm. […] Association was initiated and monitored for 200 sec, after which tips were transferred to 1×PBS buffer without 41BB protein, in order to monitor dissociation.

B1: pgEG5 (VHH, not shown: small tags and cut ends)
VHH: QVQLVESGGGLVQPGGSLRLSCTASHNIFSDNAMAWSRQAPGAQRELVARIATGGNTYYPDSVKGRFTISRDNAKNTVYLQMNNLTPDDTAVYYCYAERWTGLEYSRTYWGQGTQVTVSS
- EC50 (EGFR Fc [1]): 0.426 nM
- Kd [2]: 10.8 nM
- koff [2]: 0.00134 s⁻¹
- kon [2]: 124000 M⁻¹ s⁻¹
- OD450 (EGFR Fc [3]): 2.23
- OD450 (EGFR Fc [4]): 2.35
- OD450 (EGFR Fc [5]): 2.33
- OD450 (EGFR Fc [6]): 1.2
- OD450 (EGFR Fc [7]): 2.52
- OD450 (EGFR Fc [8]): 0.34
- OD450 (EGFR Fc [9]): 0.147
- OD450 (EGFR Fc [10]): 0.119
- OD450 (EGFR Fc [11]): 1.2
- OD450 (EGFR Fc [12]): 1.07
- OD450 (EGFR Fc [13]): 1.11
- OD450 (EGFR Fc [14]): 1.18
- OD450 (EGFR Fc [15]): 1.2
- OD450 (EGFR Fc [16]): 1.16
- OD450 (EGFR Fc [17]): 1.22
- OD450 (EGFR Fc [18]): 1.15

B2: Humanized MSA4-1 (VHH)
VHH: EVQLVESGGGLVQPGGSLRLSCAASGRTDSAYRMGWFRQAPGKEREFVSAINWSDGRTVYLDSVKGRFTISRDNAKNTLYLQMNSLRAEDTAVYYCAADPDSRLYYTVPQNYDYWGQGTQVTVSS
notes: Humanization of MSA4 based on human germline IGHV3-23*04; also called hMSA4-1; not shown: His tag (BLI used HIS tagged MSA VHHs)
- Kd (human serum albumin): 5.38 nM
- koff (human serum albumin): 0.000545 s⁻¹
- kon (human serum albumin): 101000 M⁻¹ s⁻¹
- Kd (murine serum albumin): 5.58 nM
- koff (murine serum albumin): 0.000678 s⁻¹
- kon (murine serum albumin): 121000 M⁻¹ s⁻¹

B3: 4-1BB-2 (VHH, not shown: small tags and cut ends)
VHH: QVQLVESGGGLVQAGGSLRLSCAASGSIFSYNAMAWYRQAPGKQRELVALITSDRTTKYADSVKGRFTISRDDTKNTVDLEMNSLKPEDTAVYTCAALLNSARTSWGQGTQVTVSS
- OD450 (4-1BB Fc [19]): 0.07
- OD450 (4-1BB Fc [20]): 0.129
- OD450 (4-1BB Fc [21]): 0.059
- OD450 (4-1BB Fc [22]): 0.112
- OD450 (4-1BB Fc [23]): 0.067
- OD450 (4-1BB Fc [24]): 0.063
- OD450 (4-1BB Fc [25]): 0.058
- OD450 (4-1BB Fc [26]): 0.065
- Kd (Human 41BB antigen (BLI)): 2.57 nM
- koff (Human 41BB antigen (BLI)): 0.00252 s⁻¹
- kon (Human 41BB antigen (BLI)): 979000 M⁻¹ s⁻¹

B4: 4-1BB-3 (VHH, not shown: small tags and cut ends)
VHH: EVQLVESGGGLVQAGGSLRLSCAASGNIFSYNGMAWYRQAPGNQRELVAVVAIDGTAKYADTVKGRFTISRDNIKNTVNLEMNSLKPEDTAVYTCAALRNSGSTSWGQGTQVTVSS
- OD450 (4-1BB Fc [19]): 0.089
- OD450 (4-1BB Fc [20]): 0.183
- OD450 (4-1BB Fc [21]): 0.065
- OD450 (4-1BB Fc [22]): 0.165
- OD450 (4-1BB Fc [23]): 0.06
- OD450 (4-1BB Fc [24]): 0.067
- OD450 (4-1BB Fc [25]): 0.062
- OD450 (4-1BB Fc [26]): 0.066
- Kd (Human 41BB antigen (BLI)): 1.82 nM
- koff (Human 41BB antigen (BLI)): 0.00129 s⁻¹
- kon (Human 41BB antigen (BLI)): 708000 M⁻¹ s⁻¹

B5: 4-1BB-10 (VHH, not shown: small tags and cut ends)
VHH: EVQLVESGGGLVQAGGSLRLSCAASGAIFSYNGMAWYRQAPGKQREFVAVITPDGTTKYGDSVKGRFTISRDITKNTVDLEMNSLKPEDTAVYTCAALRNSGSTSWGQGTQVTVSS
- OD450 (4-1BB Fc [19]): 0.828
- OD450 (4-1BB Fc [20]): 1.76
- OD450 (4-1BB Fc [21]): 0.11
- OD450 (4-1BB Fc [22]): 1.58
- OD450 (4-1BB Fc [23]): 0.065
- OD450 (4-1BB Fc [24]): 0.066
- OD450 (4-1BB Fc [25]): 0.068
- OD450 (4-1BB Fc [26]): 0.068
- Kd (Human 41BB antigen (BLI)): 0.657 nM
- koff (Human 41BB antigen (BLI)): 0.000539 s⁻¹
- kon (Human 41BB antigen (BLI)): 820000 M⁻¹ s⁻¹

B6: 4-1BB-56 (VHH, not shown: small tags and cut ends)
VHH: QVQLVESGGGLVQTGGSLRLSCAASGRISTIDTMFWYRQTPGKERDWVAFIPKDGLPTYVDSVKGRFTVSRDNARNTVYLQMNGLKPEDTAVYYCAVDVQEDRMRTYWGQGTQVTVSS
- OD450 (4-1BB Fc [19]): 2.89
- OD450 (4-1BB Fc [20]): 3.08
- OD450 (4-1BB Fc [21]): 1.69
- OD450 (4-1BB Fc [22]): 2.7
- OD450 (4-1BB Fc [23]): 0.397
- OD450 (4-1BB Fc [24]): 0.203
- OD450 (4-1BB Fc [25]): 0.181
- OD450 (4-1BB Fc [26]): 0.129
- Kd (Human 41BB antigen (BLI)): 0.781 nM
- koff (Human 41BB antigen (BLI)): 0.000552 s⁻¹
- kon (Human 41BB antigen (BLI)): 707000 M⁻¹ s⁻¹

B7: 4-1BB-1 (VHH, not shown: small tags and cut ends)
VHH: QVQLVESGGGLVQAGGSLRLSCAASENIFSFNAMAWYRQAPGKQRELVALITGDGTTKYADSVKGRFTIARLNAKNTVNLEMNSLKPEDTAVYTCAALRNSDRTSWGQGTQVTVSS
- OD450 (4-1BB Fc [19]): 0.108
- OD450 (4-1BB Fc [20]): 0.308
- OD450 (4-1BB Fc [21]): 0.106
- OD450 (4-1BB Fc [22]): 0.547
- OD450 (4-1BB Fc [23]): 0.061
- OD450 (4-1BB Fc [24]): 0.064
- OD450 (4-1BB Fc [25]): 0.065
- OD450 (4-1BB Fc [26]): 0.067
- Kd (Human 41BB antigen (BLI)): 3.17 nM
- koff (Human 41BB antigen (BLI)): 0.00264 s⁻¹
- kon (Human 41BB antigen (BLI)): 834000 M⁻¹ s⁻¹

B8: 4-1BB-36 (VHH, not shown: small tags and cut ends)
VHH: EVQLVESGGGLVQPGGSLRLSCAASRRTFSSYTAGWFRQAPGKEREFVASIRWISGTTTYADSVNGRFTISRDIAKNTVYLQMNSLKPDDTAVYYCAVDLSSDNDYDYWGQGTQVTVSS
- OD450 (4-1BB Fc [19]): 1.35
- OD450 (4-1BB Fc [20]): 3.19
- OD450 (4-1BB Fc [21]): 0.202
- OD450 (4-1BB Fc [22]): 4.25
- OD450 (4-1BB Fc [23]): 0.078
- OD450 (4-1BB Fc [24]): 0.068
- OD450 (4-1BB Fc [25]): 0.071
- OD450 (4-1BB Fc [26]): 0.073
- Kd (Human 41BB antigen (BLI)): 29.2 nM
- koff (Human 41BB antigen (BLI)): 0.00919 s⁻¹
- kon (Human 41BB antigen (BLI)): 314000 M⁻¹ s⁻¹

B9: 4-1BB-9 (VHH, not shown: small tags and cut ends)
VHH: QVQLVESGGGLVQAGGSLRLSCAASGSIFSYNAVAWYRQAPGKQRELVAVITSGGETTKYADSVKGRFTISRDITKNAVDLQMVSLKPEDTAVYTCAALRNSGSTSWGQGTQVTVSS
- OD450 (4-1BB Fc [19]): 0.084
- OD450 (4-1BB Fc [20]): 0.292
- OD450 (4-1BB Fc [21]): 0.061
- OD450 (4-1BB Fc [22]): 0.264
- OD450 (4-1BB Fc [23]): 0.065
- OD450 (4-1BB Fc [24]): 0.064
- OD450 (4-1BB Fc [25]): 0.067
- OD450 (4-1BB Fc [26]): 0.07
- Kd (Human 41BB antigen (BLI)): 4.55 nM
- koff (Human 41BB antigen (BLI)): 0.00276 s⁻¹
- kon (Human 41BB antigen (BLI)): 606000 M⁻¹ s⁻¹
